Test results as given in the supplement of paper PMC10126150.
± gives the standard deviation of the averaged measurements.

System: ATP
Test: switch fluorescence ratio, 500 uM ATP over buffer (Cy3 cluster intensity, sum of 5 cycles each) (fold (ratio)); higher = stronger signal-on switching upon ATP binding; sequences stand for … in TCGTCGGCAGCGTCAGATGTGTATAAGAGACAGTTTTTTTTTTTTTTTTTTTTTTTTT…TC
Conditions: aptamer strand: ATP DNA aptamer (quencher-CACCTGGGGGAGTATTGCGGAGGAAGG + anchor), 100 nM annealed; ATP concentration: 500 uM
Outline: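 Cy3-labelled switching-strand clusters on a modified Illumina MiSeq flow-cell were annealed to 100 nM quencher-labelled ATP aptamer and imaged first in selection buffer, then after 15 min with 500 uM ATP at 22 °C. NaOH stripping and re-annealing separated each of five buffer/ATP cycles, and clusters outside 100-1000 RFU were excluded. The fluorescence ratio sums target-cycle Cy3 intensity over buffer-cycle Cy3 intensity per cluster and averages it per switch-domain sequence.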
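Note: ATP exposure 15 min at 22 °C before imaging.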

GGTATGCGCT
switch fluorescence ratio: 0.9934 ± 0.0049

GGTATTACGA
switch fluorescence ratio: 0.989 ± 0.036

GGTATTAGTG
switch fluorescence ratio: 1.01 ± 0.021

GGTATTATTG
switch fluorescence ratio: 0.998 ± 0.023

GGTATTTAAA
switch fluorescence ratio: 0.982 ± 0.029

GGTCAAAGTG
switch fluorescence ratio: 1.004 ± 0.0058

GGTCAGAAGG
switch fluorescence ratio: 0.996 ± 0.026

GGTCATAATT
switch fluorescence ratio: 0.986 ± 0.025

GGTCATGAGG
switch fluorescence ratio: 0.989 ± 0.023

GGTCATGGGA
switch fluorescence ratio: 0.99 ± 0.017

GGTCATGTTT
switch fluorescence ratio: 0.993 ± 0.043

GGTCCGGGGC
switch fluorescence ratio: 1.01 ± 0.026

GGTCCTCGGG
switch fluorescence ratio: 1.03 ± 0.03

GGTCCTGGGG
switch fluorescence ratio: 1.01 ± 0.039

GGTCCTTAAT
switch fluorescence ratio: 0.989 ± 0.025

GGTCCTTAGG
switch fluorescence ratio: 1 ± 0.021

GGTCCTTGTT
switch fluorescence ratio: 1.005 ± 0.0018

GGTCGACTTT
switch fluorescence ratio: 1.0094 ± 0.00072

GGTCGAGCC
switch fluorescence ratio: 0.983 ± 0.021

GGTCGAGTGG
switch fluorescence ratio: 0.988 ± 0.0032

GGTCGATGGT
switch fluorescence ratio: 0.99 ± 0.011

GGTCGCATTC
switch fluorescence ratio: 1.05 ± 0.047

GGTCGCTACA
switch fluorescence ratio: 1.01 ± 0.026

GGTCGGCCGG
switch fluorescence ratio: 1.0178 ± 0.00045

GGTCGGCGGG
switch fluorescence ratio: 1.03 ± 0.1

GGTCGGCGTC
switch fluorescence ratio: 1.014 ± 0.0089

GGTCGGGACG
switch fluorescence ratio: 0.9588 ± 0.0015

GGTCGGGAGA
switch fluorescence ratio: 0.96 ± 0.039

GGTCGGGGGC
switch fluorescence ratio: 1.02 ± 0.031

GGTCGGGTAT
switch fluorescence ratio: 1.01 ± 0.031

GGTCGGGTGC
switch fluorescence ratio: 0.971 ± 0.047

GGTCGTAAGT
switch fluorescence ratio: 0.988 ± 0.026

GGTCGTAGAT
switch fluorescence ratio: 1.01 ± 0.036

GGTCGTTTCG
switch fluorescence ratio: 1.01 ± 0.018

GGTCTACATG
switch fluorescence ratio: 0.985 ± 0.0076

GGTCTAGG
switch fluorescence ratio: 0.992 ± 0.036

GGTCTCTGGA
switch fluorescence ratio: 1.01 ± 0.06

GGTCTGAGGG
switch fluorescence ratio: 0.97 ± 0.032

GGTCTGATGG
switch fluorescence ratio: 0.987 ± 0.035

GGTCTGGGAT
switch fluorescence ratio: 0.9939 ± 0.0096

GGTCTGGGCT
switch fluorescence ratio: 0.976 ± 0.017

GGTCTGTTAT
switch fluorescence ratio: 1.04 ± 0.078

GGTCTGTTTG
switch fluorescence ratio: 0.97 ± 0.025

GGTCTTCATT
switch fluorescence ratio: 0.963 ± 0.011

GGTGAAAACG
switch fluorescence ratio: 0.9913 ± 0.0094

GGTGACCGTT
switch fluorescence ratio: 0.992 ± 0.012

GGTGACTGAG
switch fluorescence ratio: 1.012 ± 0.009

GGTGAGACTT
switch fluorescence ratio: 1 ± 0.031

GGTGAGGATG
switch fluorescence ratio: 0.994 ± 0.018

GGTGAGGCGC
switch fluorescence ratio: 0.985 ± 0.066

GGTGAGGGAG
switch fluorescence ratio: 0.9998 ± 0.0044

GGTGAGGGGG
switch fluorescence ratio: 1 ± 0.068

GGTGAGTGCA
switch fluorescence ratio: 1.02 ± 0.07

GGTGAGTTGG
switch fluorescence ratio: 0.977 ± 0.014

GGTGATAATG
switch fluorescence ratio: 0.982 ± 0.031

GGTGATACGA
switch fluorescence ratio: 1.07 ± 0.02

GGTGATGTTA
switch fluorescence ratio: 0.9786 ± 0.0049

GGTGATTTGT
switch fluorescence ratio: 1 ± 0.03

GGTGATTTTA
switch fluorescence ratio: 1 ± 0.025

GGTGCACGGT
switch fluorescence ratio: 0.978 ± 0.051

GGTGCAGACG
switch fluorescence ratio: 1.03 ± 0.018

GGTGCATATT
switch fluorescence ratio: 1.06 ± 0.081

GGTGCATGTG
switch fluorescence ratio: 0.9713 ± 0.0013

GGTGCCTGAG
switch fluorescence ratio: 1.06 ± 0.03

GGTGCGGCTG
switch fluorescence ratio: 1.01 ± 0.073

GGTGCGGGAC
switch fluorescence ratio: 1.16 ± 0.12

GGTGCGTTCT
switch fluorescence ratio: 1 ± 0.043

GGTGCTGTCC
switch fluorescence ratio: 1.033 ± 0.0011

GGTGCTTATA
switch fluorescence ratio: 1 ± 0.013

GGTGGACCGA
switch fluorescence ratio: 0.984 ± 0.083

GGTGGAGAGC
switch fluorescence ratio: 0.99885 ± 0.00089

GGTGGATTCG
switch fluorescence ratio: 1.06 ± 0.063

GGTGGCTGAA
switch fluorescence ratio: 0.99 ± 0.022

GGTGGGAAGG
switch fluorescence ratio: 0.993 ± 0.02

GGTGGGATGT
switch fluorescence ratio: 0.981 ± 0.02

GGTGGGGGAT
switch fluorescence ratio: 1.01 ± 0.015

GGTGGGGTAA
switch fluorescence ratio: 0.9927 ± 0.0083
